According to the DeepSol protein solubility set:

Experiment: soluble on expression in E. coli; label from the status in PepcDB or PDB records

| Sequence | soluble on expression in E. coli |
| --- | --- |
| MSLRKRLTQLFPFLLPVRRIQRKLCFYTKMYLDRNHYAKAKAPEFLPFCIYETKSKLLNENTGMDIKYQENKVFNLRLAAEPVNGLLIRPGETFSFWQRVRYAEKNERYKDGLCVVNDELVTVPGGGLCHLSNLLFWLFLHTPLTIVERHAHEIKDFPSPDEDEPDGVDATIHEGWLDLKVKNDTNLTFQIELSIDGPYIYGRIFMDQAKGYSYEVVNRDKRFLQKEGKIFERVSVCRQVIDNKSKQVISENMLYTDVFEIGYPLPEGTAIAEEGHHHHHH | soluble |
| MGFMIEHWDFSTPMATQETTTAEHIQPNHWYHCERLHPDIRSWLEDNHVPRATVDHLLADESRPSFHPLDDDNFMLILRGINMNENASPEDMLSIRILYFQGALISTRKIPSRAIMEIRQALAEHKGPKSLASLLNQIIEGLNGKIDLYLDTIEETLNEFDVNDESTYNHIAAQKALISIKRFIRPQQYAIRDLIESESELVTSRPHQYRFAHNNITRINETIEFYLGEVALFQDEIKHNRDEKTNKNS | soluble |
| VGQMVAVNGYKISVFVKGQGSQTLVFLSGAGTASPILDFKDVYDGFSKEYKIVVVERADYGYSEDTSKSRDVSVILSETRQSLAKSQVSGPYIILSHSMASLETLLWQENYPSEVKAVVCLDWAFPESYFQLKRHPQMLRLARWESQLGLLRLLPRQLYMPNENLSDSDRRLYQEIAYRQLLSQAMLNESLCAKENDKKVNSTSIKSQMPVLLMVSNGKGTGFGQEQWRHYATSFAKGQKNMEVTYYDSPHYFYHYQTKEMIRSIEEFVQETTD | not soluble |
| SLSPPVVMSRMFGAQLFNGTSADSGATVGFNPDYILNPGDSIQVRLWGAFTFDGALQVDPKGNIFLPNVGPVKVAGVSNSQLNALVTSKVKEVYQSNVNVYASLLQAQPVKVYVTGFVRNPGLYGGVTSDSLLNYLIKAGGVDPERGSYVDIVVKRGNRVRSNVNLYDFLLNGKLGLSQFADGDTIIVGPRQHTFSVQGDVFNSYDFEFRESSIPVTEALSWARPKPGATHITIMRKQGLQKRSEYYPISSAPGRMLQNGDTLIVSTDRYAGTIQVRVEGAHSGEHAMVLPYGSTMRAVLEKVRPNSMSQMNAVQLYRPSVAQRQKEMLNLSLQKLEEASLSAQSSTKEEASLRMQEAQLISRFVAKARTVVPKGEVILNESNIDSVLLEDGDVINIPEKTSLVMVHGEVLFPNAVSWQKGMTTEDYIEKCGGLTQKSGNARIIVIRQNGAAVNAEDVDSLKPGDEIMVLPKYESKNIEVTRGISTILYQLAVGAKVILSL | soluble |
| MTETKDKQLSRIVLKGFKSIAKCDLEISRVNILIGANGAGKSNFIGFFRMVGQLVEENLQVFVSRQGSPDALLHFGRKTTEHLEFQLYFGNNGYFATLEPTQDNRLMFARESFWWNMSGEHEIGRGHFETKVLTSTRTGIDEYVLSAMQQWRVYHFHDTSESAYIKQPHGINDNAYLRPDARNLASFLYLLRNSYPASYQRIVKTIRLVAPFFGDFYLRPAPQNKEVIELEWFERGQDIPFKAYLLSDGTLRFMCLATVFLQPEDLQPETILVDEPELGLHPYAITVLASLMRTASKQVIVSTQSIELLNQFEAKDVIVVDRSEGSSYLRRLNQGDRIHFTGYSLLEHHHHHH | soluble |
| MSLSLKLPKADRSIETYRLAASRTFPARLEGPLNRIAFSAVHTVADPFADNDPWLSVAVDWDKTIAFREHVWDLGLGVAEAMDTAQRGMGLDWPTSLELITRSVAAAKRRNALVFSGAGTDHLAVEDARTVDDVIRAYEEQISAVEKVGGRIILMASRALAKLGRNADDYAKVYDRVLSQVREPVIIHWLGDMFDPALTGYWGTKDLDKAMDVAVAVINANAAKVDGVKVSLLDKQREIDMRRRLDKRIRMYTGDDFNYAELIAGDSQGFSHALLGIFDAIAPAASYALSRLAAGDEAGFHDVLGPTVPLSRHIFKAPTRFYKTGVVFMAYLNGHQDHFTMVGGQESARSMLHLAELFRLADQAGLLANPELATRRMTTVLASHGIESEGHHHHHH | soluble |
| MAQIDFRKKINWHRRYRSPQGVKTEHEILRIFESDRGRIINSPAIRRLQQKTQVFPLERNAAVRTRLTHSMEVQQVGRYIAKEILSRLKELKLLEAYGLDELTGPFESIVEMSCLMHDIGNPPFGHFGEAAINDWFRQRLHPEDAESQPLTDDRCSVAVLRLRDGEEPLNELRRKIRQDLCHFEGNAQGIRLVHTLMRMNLTWAQVGGILKYTRPAWWRGETPETHHYLMKKPGYYLSEEAYIARLRKELNLALYSRFPLTWIMEAADDISYCVADLEDAVEKRIFTVEQLYHHLHEAWGQHEKGSLFSLVVENAWEKSRSNSLSRSTEDQFFMYLRVNTLNKLVPYAAQRFIDNLPAIFAGTFNHALLEDASECSDLLKLYKNVAVKHVFSHPDVEQLELQGYRVISGLLEIYRPLLSLSLSDFTELVEKERVKRSPIESRLFHKLSTRHRLAYVEAVSKLPSDSPEFPLWEYYYRCRLLQDYISGMTDLYAWDEYRRLMAVEQ | not soluble |
| MAASMARLWWPFLARQGLRSRGRCVCSQNPRRSFATEKRVRNLLYEHAREGYSELPYLDMESVCACPEKAARSLELRKGELRPADLPAIISTWQELRQLREQIRSLEAEKEAVAEAVRALLANQDSDQVQKDPQYQGLRARGREIRKQLTPLYPQETQLEEQLYQQALRLPNQTHPDTPVGDESQARVVRVVGEKPAFSFQPRGHLEIGEKLDIIRQKRLSHVSGHRSYYLRGAGALLQHGLVNFTLSKLVSRGFTPMTVPDLLRGAVFEGCGMTPNANPSQIYNIDPSRFEDLNLAGTAEVGLAGYFMDHSVAFRDLPVRMVCASTCYRAETDTGKEPWGLYRVHHFTKVEMFGVTGPGLEQSSQLLDEFLSLQVEILTELGLHFRVLDMPTQELGLPAYRKFDIEAWMPGRGRYGEVTSASNCTDFQSRRLYIMFETETGELQFAHTVNATACAVPRVLIALLESNQQKDGSVLVPAALQPYLGTDRITAPTHVPLQYIGPNQPQKPRLPGQSATR | soluble |
| MGSDKIHHHHHHMVKDKNDVGPKTVAILGAGGKMGARITRKIHDSAHHLAAIEIAPEGRDRLQGMGIPLTDGDGWIDEADVVVLALPDNIIEKVAEDIVPRVRPGTIVLILDAAAPYAGVMPERADITYFIGHPCHPPLFNDETDPAARTDYHGGIAKQAIVCALMQGPEEHYAIGADICETMWSPVTRTHRVTTEQLAILEPGLSEMVAMPFVETMVHAVDECADRYGIDRQAALDFMIGHLNVEIAMWFGYSPKVPSDAALRLMEFAKDIVVKEDWREALNPAKVKQAAELIAGK | not soluble |
| MKTAQEFRAGQVANINGAPWVIQKAEFNKSGRNAAVVKMKLKNLLTGAGTETVFKADDKLEPIILDRKEVTYSYFADPLYVFMDSEFNQYEIEKDDLEGVLTFIEDGMTDICEAVFYNDKVISVELPTTIVRQIAYTEPAVRGDTSGKVMKTARLNNGAELQVSAFCEIGDSIEIDTRTGEYKSRVKA | not soluble |
| MGSDKIHHHHHHMTNQLLSEQWFEHQAKVTEAIGRPGFAASLFAALGVIRPIQATTVYLYPHDGMPCALFEQDDKAPWQPEGNVSRYLSGFYLLDPFYGACVEQVESGCYGLFEVAPDHFEVSEYYQSFYRHSHLEDELNYILQVAPGQSLAVSLAFTDKLDGQSRTRFGLITPWVLAVLGKHFAGLDSRAGRFENILEQRIHAALNNFGSSLLTERECRIAQLILRGHSTKSLAERLGVSEDTIKSHRKNVYAKLDIGTQSELFSLFIDALANAQGVLGKDPLESYMGKLR | not soluble |
| MHNSSSSTIGKPLIPQKLPEFLNAYENFIIAGHKEPDGDCIGSCLAMSFFLKRKNKNCILMSAGPFKRTEIKEYEHLFTDKLKISDKINPKTTGLIILDCSNFDRVGEIAELISGFNYIIIDHHATNTEKSDTSLIMPEAPSTTYLIQSIIEEIGEKLTKEEADALFFGLCTDTGFFRHLDAGSAEVFAHASRLIEAGANPKQTFMKINGGKKFESRLLISRILNRMKTYYDGRLVVSYETYDDLLEFGLESRDSDILYQLIQSIEGVEAICIVRQDSPSHCSVGFRSLDKIDVSKIAASFGGGGHKQASGLYIEGKFDDLIPRFVEAFGTQMLEHHHHHH | soluble |
| QQRQRRKRKELTNLIRRFRNGAESLPDAVVVFRAEGNIVWCNRLAQHLLGFHWPEDSGQPISNLIRTPDFIKYLNKKDFSEPLEMRSPLNVERMLELRIVPYTEGEHLMVVRDVS | soluble |
| MLYIFTPTFNRGYRLSYLYDSLCNQTNKNFIWLIVDDGSEDSTKEIVSNYIKENKVSIVYLYKRNGGKHSAYNLAMRYMQPSDYHVCVDSDDWLLEDAVEIIFKDLESLTLSNRYVGLVYPRYSLNQGNNWLNPKILEVNIPDLKYKYHLKIETCIVINNAYLVDFEFPCFEGENFLSEEIMYIYLSKKGYFCPQNRKIYCFDYLEDGLTSNIFKLWRKNFKGTIFSLENSYMYVMSFPNIFDRWWSAIKIKMNIQALKMTTLGVIPTLKSEEAGWKILLGFSYLWKVARFKKSELEHHHHHH | soluble |
| GHMEELNIDFDVFKKRIELLYSKYNEFEGSPNSLLFVLGSSNAENPYQKTTILHNWLLSYEFPATLIALVPGKVIIITSSAKAKHLQKAIDLFKDPESKITLELWQRNNKEPELNKKLFDDVIALINSAGKTVGIPEKDSYQGKFMTEWNPVWEAAVKENEFNVIDISLGLSKVWEVKDVNEQAFLSVSSKGSDKFMDLLSNEMVRAVDEELKITNAKLSDKIENKIDDVKFLKQLSPDLSALCPPNYKFNFDLLDWTYSPIIQSGKKFDLRVSARSTNDQLYGNGCILASCGIRYNNYCSNITRTFLIDPSEEMANNYDFLLTLQKEIVTNILKPGRTPKEVYESVIEYIEKTKPELVPNFTKNIGSLIGLEFRDSNFILNVKNDYRKIQRGDCFNISFGFNNLKDSQSANNYALQLADTVQIPLDETEPPRFLTNYTKAKSQISFYFNNEEEDNNKKKSSPATKV | soluble |
| MGSDKIHHHHHHMTVLILTNPFDITADDVILRLTERGVPVVRLDPADFPQQVVLHSEIGGNGWTGTLTTPHRILDLSTVTGIWYRRPRKFRLPAQMSQAEYEFAATEARRGFGGIINSLTGWINHPSAIGRAEYKPYQLHHAVQAGLNVPRTLITNDPKQAKGWCARVGDVVYKPLSAPSWLENGDTYVVFTTPITPDQWGDPAIGRTAHMFQQRLDKEFEVRLTMVDGKAFPAAIHAHSDAARIDWRSDYDALTYSIPTVPQRVLTGARDLLRRLHLRYAALDFIVSPDGRWHFLEVNPNGQYGWIEEHTGQPISDAIADALTRKEN | not soluble |
| DSQDWHDWIDQALTERRLLLYFQPVVDCLDTQRVLHHKVLARLLDPQATAIAAGRFLPWIERFGWAARMDLAMLEQSLEHLRRHPRPLALSLSAASVRNAQTFAPLLALLKAHPQEARQLTLELDERHLPAAAELERLSQVLRELGCGLGLQHFGGRFSLIGNLTHLGLAYLKLDGCYLHAVDREGDKRLFIEAVYRTTHSIDLPLIAEQVETLGELEVLREMGLRGAMGRLFGSPAPWSGDA | soluble |
| MSGKPPAIFLMGPTAAGKTDLAIELTTVLPCELISVDSALVYRGMDIGSAKPSKEVLAAHPHRLIDILDPAQSYSAAQFRADALEAMAEITARGKIPLLVGGTMLYYKALIDGLADMPAADATVRAELEAQAEALGLAELHRQLAEVDPESAARIHPNDPQRLIRALEVYRVSGESMTAHRRRQFAESRGADAGAGGHLPYTVASLAIAPTDRHILHQRIALRFSQMLEQGFVDEVRSLRARSDLHAGLPSIRAVGYRQVWDYLDGKLTENEMRERGIIATRQLAKRQFTWLRGWPEVHWLDSLACDNLSRTLKYLGAISILSLEHHHHHH | soluble |
